The results in this text go back to PMC5919673, “Effector gene birth in plant parasitic nematodes: Neofunctionalization of a housekeeping glutathione synthetase gene” (PLoS Genetics, 2018).

Experiment [1] concerns the target Globodera pallida Clade 3 GS-like effector Gpa-GSS12 (Globodera pallida). Kind of experiment: SEC; S200 analytical gel filtration column; purified proteins migrate between the 150 kDa and 75 kDa protein standards, at a mass consistent with a homodimer (50 kDa per subunit). A general note: In gel filtration, larger molecules generally elute earlier.
In experiment [2] the target is Solanum tuberosum glutathione synthetase St-GSS1 (Solanum tuberosum). Described as above.
The target in experiment [3] is Globodera pallida Clade 3 GS-like effector Gpa-GSS22 (Globodera pallida). The experiment is described as above.
Experiment [4] addresses Globodera pallida Clade 1 glutathione synthetase Gpa-GSS1 (Globodera pallida). Described as above.
Experiment [5] concerns the target Globodera pallida Clade 3 GS-like effector Gpa-GSS30 (Globodera pallida). The experiment is described as above.
Experiment [6] deals with Globodera pallida Clade 3 GS-like effector Gpa-GSS17 (Globodera pallida). The description is as above.
The target in experiment [7] is Globodera pallida Clade 3 GS-like effector Gpa-GSS24 (Globodera pallida). The experiment is described as above.
For experiment [8], the target named is Globodera pallida Clade 2 glutathione synthetase Gpa-GSS5 (Globodera pallida). Described as above.
The target in experiment [9] is T1, Gpa-GSS1 (Globodera pallida, UniProt A0A183BS86).
T1 construct: full-length; His6-SUMO tag cleaved by 3C protease (pOPINS3C); E. coli SHuffle; homodimer, about 50 kDa per subunit
The experiment in a line: malachite green phosphate release from ATP. Format: biochemical. The settings on record: glycine, 20 mM MgCl2, 5 mM DTT, 100 mM HEPES pH 7.5, 30 °C.

Experiment [10] has as its target T2, St-GSS1 (Solanum tuberosum, UniProt M1CSC4).
T2 construct: gene LOC102589405; His6-SUMO tag cleaved by 3C protease (pOPINS3C); E. coli SHuffle; homodimer, about 50 kDa per subunit
T2 sequence (M1CSC4 1-483): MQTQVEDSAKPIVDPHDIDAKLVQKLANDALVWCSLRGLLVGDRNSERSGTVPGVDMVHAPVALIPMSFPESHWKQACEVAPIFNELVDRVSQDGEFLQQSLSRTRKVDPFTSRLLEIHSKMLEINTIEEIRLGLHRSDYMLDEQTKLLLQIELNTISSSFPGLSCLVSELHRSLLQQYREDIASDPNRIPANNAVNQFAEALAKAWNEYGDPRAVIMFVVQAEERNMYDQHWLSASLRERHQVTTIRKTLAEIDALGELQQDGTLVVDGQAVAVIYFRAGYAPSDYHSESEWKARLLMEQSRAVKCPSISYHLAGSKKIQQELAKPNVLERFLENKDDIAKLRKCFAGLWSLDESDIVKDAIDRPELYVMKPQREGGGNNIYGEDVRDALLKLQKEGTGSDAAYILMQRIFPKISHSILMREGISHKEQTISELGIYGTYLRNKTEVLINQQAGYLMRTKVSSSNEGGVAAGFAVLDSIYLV
The experiment in a line: malachite green phosphate release from ATP. It counts as biochemical. The settings on record: glycine, 20 mM MgCl2, 5 mM DTT, 100 mM HEPES pH 7.5, 30 °C.

Usually stoichiometry N stands for a count of units in the complex or per binding partner.

As to “Globodera pallida Clade 3 GS-like effector Gpa-GSS12 (natural protein)”, the stoichiometry N in [1] stood at 2.

“Solanum tuberosum glutathione synthetase St-GSS1 (enzyme)” displayed a stoichiometry N in experiment [2] of 2. Compound “Globodera pallida Clade 3 GS-like effector Gpa-GSS22 (natural protein)” returned a stoichiometry N in [3] of 2. “Globodera pallida Clade 1 glutathione synthetase Gpa-GSS1 (enzyme)” came in with a stoichiometry N in [4] of 2. “Globodera pallida Clade 3 GS-like effector Gpa-GSS30 (natural protein)”: the stoichiometry N in experiment [5] stood at 2.

“Globodera pallida Clade 3 GS-like effector Gpa-GSS17 (natural protein)”: the stoichiometry N in experiment [6] is 2. In the case of “Globodera pallida Clade 3 GS-like effector Gpa-GSS24 (natural protein)”, in experiment [7], the stoichiometry N turned out to be 2.

In experiment [8], “Globodera pallida Clade 2 glutathione synthetase Gpa-GSS5 (enzyme)” gave a stoichiometry N of 2.

Take `N[C@@H](CCC(=O)N[C@@H](CS)C(=O)O)C(=O)O` [γ-EC]: the Km result in [9] and in experiment [10] was “The Km for γ-EC for canonical GS enzymes” each time.
